Data reported in the supplement of paper PMC7877785.
± gives the uncertainty stated by the source.

Assay: self-splicing fitness, log relative to wild type (ln ratio); higher = more splicing; Tetrahymena group I intron in knt gene, E. coli kanamycin selection, DiMSum; sequences stand for … in CUCUCU…GGAGGGAAAAGUUAUCAGGCAUGCACCUGGUAGCUAGUCUUUAAACCAAUAGAUUGCAUCGGUUUAAAAGGCAAGACCGUCAAAUUGCGGGAAAGGGGUCAACAGCCGUUCAGUACCAAGUCUCAGGGGAAACUUUGAGAUGGCCUUGCAAAGGGUAUGGUAAUAAGCUGACGGACAUGGUCCUAACCACGCAGCCAAGUCCUAAGUCAACAGAUCUUCUGUUGAUAUGGAUGCAGUUCACAGACUAAAUGUCGGUCGGGGAAGAUGUAUUCUUCUCAUAAGAUAUAGUCGGACCUCUCCUUAAUGGGAGCUAGCGGAUGAAGUGAUGCAACACUGGAGCCGCUGGGAACUAAUUUGUAUGCGAAAGUAUAUUGAUUAGUUUUGGAGUACUCGUGGUCG
Procedure, shortened: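 Six replicate transformations of E. coli BL21(DE3) with a pET-22b(+) library were grown overnight at 37°C or 30°C. The library randomised all eight P1ex-region intron nucleotides, the intron lying in the knt kanamycin-resistance gene, and plates were LB agar with or without 25 μg/mL kanamycin plus 100 μg/mL carbenicillin, 50 μM IPTG and 0.2% rhamnose. Pooled colonies were amplicon-sequenced on an Illumina HiSeq 2500, and fitness is the DiMSum error-weighted combination of wild-type-normalised replicate fold changes, kanamycin versus none.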

Sequence | self-splicing fitness (ln) (30 °C) | self-splicing fitness (ln) (37 °C)
AAAUAGCAAUAUUACGCGGU | -2.71 ± 0.18 | -1.93 ± 0.2
AAAUAGCAAUAUUACGCUUA | -1.47 ± 0.11 | -0.735 ± 0.13
AAAUAGCAAUAUUACGGAAC | -4.71 ± 0.45 | -1.74 ± 0.36
AAAUAGCAAUAUUACGGACC | -1.57 ± 0.25 | -1.26 ± 0.31
AAAUAGCAAUAUUACGGAUA | -2.19 ± 0.2 | -1.1 ± 0.16
AAAUAGCAAUAUUACGGGCG | -1.29 ± 0.08 | -0.403 ± 0.096
AAAUAGCAAUAUUACGGUUU | -1.3 ± 0.059 | -0.657 ± 0.076
AAAUAGCAAUAUUACGUCAC | -4.4 ± 0.42 | -2.53 ± 0.28
AAAUAGCAAUAUUACGUCGC | -2.54 ± 0.15 | -2.54 ± 0.28
AAAUAGCAAUAUUACGUGCG | -0.841 ± 0.13 | -0.149 ± 0.15
AAAUAGCAAUAUUACGUGUG | -2.05 ± 0.09 | -1.55 ± 0.086
AAAUAGCAAUAUUACGUUAU | -3.39 ± 0.18 | -2 ± 0.15
AACAAGCAAUAUUACGAACU | -0.328 ± 0.052 | 0.146 ± 0.084
AACAAGCAAUAUUACGAAUG | -3 ± 0.14 | -1.97 ± 0.12
AACAAGCAAUAUUACGCGCA | -0.604 ± 0.066 | 0.104 ± 0.094
AACAAGCAAUAUUACGCGGA | -2.07 ± 0.099 | -0.961 ± 0.078
AACAAGCAAUAUUACGCUCG | -0.882 ± 0.11 | -0.282 ± 0.11
AACAAGCAAUAUUACGCUCU | -0.638 ± 0.075 | 0.0475 ± 0.089
AACAAGCAAUAUUACGCUGC | -3.38 ± 0.3 | -2.45 ± 0.28
AACAAGCAAUAUUACGCUGU | -3.38 ± 0.12 | -2.32 ± 0.13
AACAAGCAAUAUUACGGAAU | -2.64 ± 0.13 | -1.75 ± 0.14
AACAAGCAAUAUUACGGAGC | -4.22 ± 0.3 | -3.65 ± 0.36
AACAAGCAAUAUUACGGGAA | -1.57 ± 0.097 | -1.86 ± 0.13
AACAAGCAAUAUUACGGGAU | -2.27 ± 0.098 | -1.01 ± 0.1

Sequence | self-splicing fitness (ln) (30 °C) | self-splicing fitness (ln) (37 °C)
AACAAGCAAUAUUACGGUAG | -3.81 ± 0.2 | -2.22 ± 0.13
AACAAGCAAUAUUACGGUGC | -3.67 ± 0.16 | -2.04 ± 0.12
AACAAGCAAUAUUACGUACA | -1.04 ± 0.095 | -0.329 ± 0.11
AACAAGCAAUAUUACGUACU | -0.11 ± 0.05 | 0.496 ± 0.071
AACAAGCAAUAUUACGUAUA | -2.4 ± 0.13 | -1.59 ± 0.12
AACAAGCAAUAUUACGUAUC | -4.08 ± 0.15 | -2.01 ± 0.11
AACAAGCAAUAUUACGUCUG | -1.22 ± 0.058 | -0.709 ± 0.076
AACAAGCAAUAUUACGUGUC | -4.91 ± 0.21 | -2.96 ± 0.095
AACAAGCAAUAUUACGUUCC | -3.85 ± 0.36 | -0.835 ± 0.2
AACCAGCAAUAUUACGAAGA | -2.02 ± 0.081 | -0.639 ± 0.082
AACCAGCAAUAUUACGCACU | 0.473 ± 0.074 | 0.0602 ± 0.078
AACCAGCAAUAUUACGCCCU | 0.309 ± 0.089 | -0.381 ± 0.13
AACCAGCAAUAUUACGCCGG | -3.39 ± 0.17 | -2.09 ± 0.17
AACCAGCAAUAUUACGCGUU | -3.77 ± 0.15 | -1.56 ± 0.15
AACCAGCAAUAUUACGCUUA | -0.415 ± 0.046 | -0.0597 ± 0.055
AACCAGCAAUAUUACGGAGC | -2.17 ± 0.12 | -1.49 ± 0.13
AACCAGCAAUAUUACGGAUC | -2.84 ± 0.11 | -1.48 ± 0.1
AACCAGCAAUAUUACGGCAA | -0.217 ± 0.07 | -0.0314 ± 0.082
AACCAGCAAUAUUACGGCCG | 0.0592 ± 0.073 | -0.223 ± 0.1
AACCAGCAAUAUUACGGGAU | -2.59 ± 0.097 | -1.6 ± 0.098
AACCAGCAAUAUUACGGUGG | -2.33 ± 0.086 | -1.44 ± 0.1
AACCAGCAAUAUUACGUACU | 0.015 ± 0.053 | 0.248 ± 0.066
AACCAGCAAUAUUACGUAGA | -1.75 ± 0.044 | -0.514 ± 0.058
